Source: the supplement of paper PMC7877785
± gives the uncertainty stated by the source.

Assay: self-splicing fitness, log relative to wild type (ln ratio); higher = more splicing; Tetrahymena group I intron in knt gene, E. coli kanamycin selection, DiMSum; sequences stand for … in CUCUCU…GGAGGGAAAAGUUAUCAGGCAUGCACCUGGUAGCUAGUCUUUAAACCAAUAGAUUGCAUCGGUUUAAAAGGCAAGACCGUCAAAUUGCGGGAAAGGGGUCAACAGCCGUUCAGUACCAAGUCUCAGGGGAAACUUUGAGAUGGCCUUGCAAAGGGUAUGGUAAUAAGCUGACGGACAUGGUCCUAACCACGCAGCCAAGUCCUAAGUCAACAGAUCUUCUGUUGAUAUGGAUGCAGUUCACAGACUAAAUGUCGGUCGGGGAAGAUGUAUUCUUCUCAUAAGAUAUAGUCGGACCUCUCCUUAAUGGGAGCUAGCGGAUGAAGUGAUGCAACACUGGAGCCGCUGGGAACUAAUUUGUAUGCGAAAGUAUAUUGAUUAGUUUUGGAGUACUCGUGGUCG
Method in brief: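 Colonies from six replicate transformations of E. coli BL21(DE3) were pooled and amplicon-sequenced on an Illumina HiSeq 2500. The library placed an intron with all eight P1ex-region nucleotides randomised inside the knt kanamycin-resistance gene on pET-22b(+), and cells grew overnight at 37°C or 30°C on LB agar with or without 25 μg/mL kanamycin (plus 100 μg/mL carbenicillin, 50 μM IPTG, 0.2% rhamnose). Fitness is the DiMSum error-weighted combination of wild-type-normalised replicate fold changes, kanamycin versus none.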

Sequence	self-splicing fitness (ln) (30 °C)	self-splicing fitness (ln) (37 °C)
CAUUAGCAAUAUUACGAUUA	-1.47 ± 0.085	-0.981 ± 0.081
CAUUAGCAAUAUUACGCAAC	-2.14 ± 0.46	-2.51 ± 0.3
CAUUAGCAAUAUUACGCCGG	-0.963 ± 0.15	0.612 ± 0.24
CAUUAGCAAUAUUACGCCUU	-3.03 ± 0.36	-1.84 ± 0.21
CAUUAGCAAUAUUACGCGCG	0.0331 ± 0.12	0.0206 ± 0.13
CAUUAGCAAUAUUACGCGGC	-3.98 ± 0.28	-1.8 ± 0.28
CAUUAGCAAUAUUACGCUAA	-2.7 ± 0.32	
CAUUAGCAAUAUUACGCUAG	-2.75 ± 0.28	-0.852 ± 0.2
CAUUAGCAAUAUUACGCUAU	-3.47 ± 0.3	-2.99 ± 0.28
CAUUAGCAAUAUUACGCUCA	-1.21 ± 0.07	-0.215 ± 0.073
CAUUAGCAAUAUUACGCUCG	-0.328 ± 0.11	0.302 ± 0.13
CAUUAGCAAUAUUACGGAAU	-2.87 ± 0.29	-2.61 ± 0.31
CAUUAGCAAUAUUACGGACG	-0.114 ± 0.086	0.364 ± 0.11
CAUUAGCAAUAUUACGGCAC	-4.19 ± 0.46	-1.1 ± 0.17
CAUUAGCAAUAUUACGGCGC	-2.01 ± 0.3	-0.0545 ± 0.24
CAUUAGCAAUAUUACGGGUA	-1.06 ± 0.11	-0.972 ± 0.13
CAUUAGCAAUAUUACGGUAU		-0.876 ± 0.12
CAUUAGCAAUAUUACGGUUU	-3.82 ± 0.2	-2.68 ± 0.2
CAUUAGCAAUAUUACGUAGG	-0.646 ± 0.08	-0.199 ± 0.11
CAUUAGCAAUAUUACGUAUG	-3.57 ± 0.2	-2.9 ± 0.3
CAUUAGCAAUAUUACGUAUU	-4.04 ± 0.4	-2.37 ± 0.27
CAUUAGCAAUAUUACGUCCA	-3.34 ± 0.32	-1.3 ± 0.28
CAUUAGCAAUAUUACGUCUU	-3.25 ± 0.27	-2.33 ± 0.21
CAUUAGCAAUAUUACGUGUA	-2.78 ± 0.18	-1.57 ± 0.11

Sequence	self-splicing fitness (ln) (30 °C)	self-splicing fitness (ln) (37 °C)
CAUUAGCAAUAUUACGUGUU	-3.38 ± 0.18	-2.69 ± 0.2
CAUUAGCAAUAUUACGUUAC	-3.48 ± 0.2	-2.17 ± 0.25
CCAAAGCAAUAUUACGAAGC	-3.15 ± 0.36	
CCAAAGCAAUAUUACGACAC		-3.02 ± 0.25
CCAAAGCAAUAUUACGACGA	-3.11 ± 0.29	-0.0538 ± 0.26
CCAAAGCAAUAUUACGAGGA	-3.54 ± 0.17	-2.79 ± 0.18
CCAAAGCAAUAUUACGAGGC	-4.23 ± 0.27	-2.46 ± 0.22
CCAAAGCAAUAUUACGCACG	-0.44 ± 0.087	-0.583 ± 0.11
CCAAAGCAAUAUUACGCCGA	-2.83 ± 0.18	-3.4 ± 0.23
CCAAAGCAAUAUUACGCGCU	-3.57 ± 0.15	-3.13 ± 0.17
CCAAAGCAAUAUUACGCUAU	-3.7 ± 0.19	-2.39 ± 0.23
CCAAAGCAAUAUUACGCUCA	-3.2 ± 0.14	-2.2 ± 0.16
CCAAAGCAAUAUUACGGAUG	-1.44 ± 0.069	-1.48 ± 0.1
CCAAAGCAAUAUUACGUAAG	-0.334 ± 0.049	0.53 ± 0.071
CCACAGCAAUAUUACGACUU	-4 ± 0.28	-2.81 ± 0.27
CCACAGCAAUAUUACGAGAG	-2.41 ± 0.067	-1.25 ± 0.065
CCACAGCAAUAUUACGAGGG	-3.22 ± 0.12	-3.11 ± 0.22
CCACAGCAAUAUUACGAUUA	-3.92 ± 0.18	-2.11 ± 0.13
CCACAGCAAUAUUACGAUUU	-4.23 ± 0.19	-3.01 ± 0.17
CCACAGCAAUAUUACGCAGU	-3.58 ± 0.15	-2.92 ± 0.19
CCACAGCAAUAUUACGCAUU	-3.53 ± 0.17	-3.11 ± 0.16
CCACAGCAAUAUUACGCCAG	-2.56 ± 0.15	-1.07 ± 0.14
CCACAGCAAUAUUACGCCCC	-2.07 ± 0.27	-2.2 ± 0.4
CCACAGCAAUAUUACGCCGG	-3.23 ± 0.18	-2.2 ± 0.19
